# B1: Twin-Strep-SLX4^330-555 (domain or fragment, human, UniProt Q8IY92 330-555, looked up)
# chain: VPQIPECPICGKPFLTLKSRTSHLKQCAVKMEVGPQLLLQAVRLQTAQPEGSSSPPMFSFSDHSRGLKRRGPTSKKEPRKRRKVDEAPSEDLLVAMALSRSEMEPGAAVPALRLESAFSERIRPEAENKSRKKKPPVSPPLLLVQDSETTGRQIEDRVALLLSEEVELSSTPPLPASRILKEGWERAGQCPPPPERKQSFLWEGSALTGAWAMEDFYTARLVPPLV
# notes: from clone HsCD00821809 (DNASU) in vector 438-Sn; source: Sf9 (small-scale assays: Sf9 or Hi5), baculovirus co-infection with His6-XPF-ERCC1(-SLX4IP); purified as complexes (Strep-Tactin, Capto HiRes Q, Superdex 200) or in insect cell lysate; not shown: twin-Strep, N-terminal, kept
# Target: T1, His6-XPF (xeroderma pigmentosum complementation group F), wild type (human, UniProt Q92889 1-916)
# T1 construct: XPF (ERCC4), human; Always co-expressed with ERCC1; also called ERCC4; XPF^WT; source: Sf9 (small-scale assays: Sf9 or Hi5), baculovirus co-expression with ERCC1; purified as complexes (Ni-NTA or Strep-Tactin, Capto HiRes Q, Superdex 200) or in insect cell lysate; not shown: His6, N-terminal, kept
# Assay: co-purification (Strep-Tactin, ion exchange, SEC); co-infection of Sf9 with His6-XPF-ERCC1(-SLX4IP) and Twin-Strep-SLX4 fragment viruses; capture by the Twin-Strep tag on SLX4 on Strep-Tactin, 250 mM KCl, 40 mM HEPES-KOH pH 7.9, then Capto HiRes Q and Superdex 200; SDS-PAGE
# Conditions: partners not purified
binder,measurement,value
B1,binding result,binds

# From PMC12804970, “Molecular basis of XPF-ERCC1 targeting to SLX4-dependent DNA repair pathways” (Nature Communications, 2025)
